# Laboratory results: patent publication US20100158922A1 (NOVIMMUNE S A, published 2010)
# Numbering of substitutions follows the chain as printed.
# T1: recombinant human IFNγ (human, UniProt P01579 24-166, limits assumed)
# T1 sequence (looked up): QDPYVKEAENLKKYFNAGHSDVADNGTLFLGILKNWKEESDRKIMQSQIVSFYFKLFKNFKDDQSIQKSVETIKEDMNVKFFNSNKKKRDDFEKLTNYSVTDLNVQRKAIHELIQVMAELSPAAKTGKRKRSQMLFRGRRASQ
# T2: recombinant cat IFNγ (cat, UniProt P46402 24-167)
# T2 construct: also called rcIFNγ
# T2 sequence (looked up): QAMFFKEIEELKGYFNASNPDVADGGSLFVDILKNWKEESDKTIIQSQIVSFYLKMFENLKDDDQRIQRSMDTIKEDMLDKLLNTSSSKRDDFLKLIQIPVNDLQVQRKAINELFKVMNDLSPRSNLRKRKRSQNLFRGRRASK
# T3: recombinant dog IFNγ (dog, UniProt P42161 24-166)
# T3 construct: also called rdIFNγ
# T3 sequence (looked up): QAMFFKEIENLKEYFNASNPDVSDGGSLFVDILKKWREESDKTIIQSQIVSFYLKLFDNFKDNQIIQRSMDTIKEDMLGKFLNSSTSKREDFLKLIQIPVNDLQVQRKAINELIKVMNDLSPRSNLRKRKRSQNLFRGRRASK
# T4: recombinant cynomolgus IFNγ (cynomolgus monkey, UniProt P63309 24-165)
# T4 construct: also called rcyIFNγ
# T4 sequence (looked up): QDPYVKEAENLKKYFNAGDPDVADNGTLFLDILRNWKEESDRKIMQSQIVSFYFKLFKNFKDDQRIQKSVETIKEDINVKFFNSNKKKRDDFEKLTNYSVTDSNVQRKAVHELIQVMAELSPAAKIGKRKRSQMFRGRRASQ
# T5: native cynomolgus IFNγ (cynomolgus monkey, UniProt P63309 24-165, limits assumed)
# T5 construct: Native protein in a culture supernatant; also called ncyIFNγ
# T5 sequence (looked up): T4 sequence (looked up)
# T6: native human IFNγ (human, UniProt P01579 24-161, limits assumed)
# T6 construct: Native protein in a culture supernatant; also called nhuIFNγ
# T6 sequence (looked up): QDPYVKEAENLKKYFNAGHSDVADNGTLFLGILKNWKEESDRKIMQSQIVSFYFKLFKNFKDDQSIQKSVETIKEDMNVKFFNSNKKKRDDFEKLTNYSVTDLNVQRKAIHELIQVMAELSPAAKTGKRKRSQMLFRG
# B1: AD1.4R4P2_G7 IgG (antibody, V domains shown)
# VH: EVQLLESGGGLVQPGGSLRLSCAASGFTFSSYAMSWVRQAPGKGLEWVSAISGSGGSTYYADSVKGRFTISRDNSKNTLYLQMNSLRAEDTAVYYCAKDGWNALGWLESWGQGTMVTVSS
# VL: NFMLTQPHAVSESPGKTVTISCTGRNGNIASNYVQWYQQRPDSAPTLIIFEDTQRPSGVPTRLSGSIDTSSNSASLIISSLRTEDEADYYCQSSDSNRVLFGGGTKVTVLG
# B2: AC1.2R3P2_A6 IgG (antibody, V domains shown)
# VH: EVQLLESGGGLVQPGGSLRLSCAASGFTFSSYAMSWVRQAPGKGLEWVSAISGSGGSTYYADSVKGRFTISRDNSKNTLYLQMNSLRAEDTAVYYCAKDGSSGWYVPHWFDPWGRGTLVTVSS
# VL: NFMLTQPHSVSESPGKTVTISCTRSSGSIVSNYVQWYQQRPGSAPTTVIYEDNRRPSGVPDRFSGSIDSSSNTASLTISGLEAEDEADYYCQSYDGSNRWMFGGGTKLTVLG
# B3: AD1.4R4P1_B9 IgG (antibody, V domains shown)
# VH: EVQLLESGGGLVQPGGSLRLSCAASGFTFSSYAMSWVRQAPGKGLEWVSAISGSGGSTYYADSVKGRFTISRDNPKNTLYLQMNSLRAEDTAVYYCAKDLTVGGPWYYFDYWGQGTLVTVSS
# VL: NFMLTQPHSVSESPGKTVTISCTRSSGSIVSNYVQWYQQRPGSAPTTVIFDDDQRPSGVPGRFSGSLDSSSNSASLTISGLQTEDEADYYCQSYDSSNVVFGGGTKVTVLG
# B4: AC1.4R4P2_C10 IgG (antibody, V domains shown)
# VH: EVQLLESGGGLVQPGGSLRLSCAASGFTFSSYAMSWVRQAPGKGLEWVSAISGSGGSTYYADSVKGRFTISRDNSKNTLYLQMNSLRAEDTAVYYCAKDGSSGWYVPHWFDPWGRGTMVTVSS
# VL: NFMLTQPHSVSESPGKTVTISCTRSSGTIASNYVQWYQQRPGSSPTTVIYEDNQRPSGVPDRFSGSIDSSSNSASLTISGLKTEDEADYYCQSYDNSNHWVFGGGTKVTVLG
# B5: AC1.2R2P2_D8 IgG (antibody, V domains shown)
# VH: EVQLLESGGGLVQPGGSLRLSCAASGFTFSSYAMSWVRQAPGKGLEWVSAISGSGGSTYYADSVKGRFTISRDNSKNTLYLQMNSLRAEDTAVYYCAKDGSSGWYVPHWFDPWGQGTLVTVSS
# VL: B4 VL with T28S, A30V, N96S, S97N, H99F, V108L
# B6: AD1.3R3P5_F8 IgG (antibody, V domains shown)
# VH: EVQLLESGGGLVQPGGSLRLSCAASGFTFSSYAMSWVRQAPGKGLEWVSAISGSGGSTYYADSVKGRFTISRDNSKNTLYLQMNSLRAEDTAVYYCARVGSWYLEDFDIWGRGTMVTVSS
# VL: NFMLTQPHSVSESPGKTVTISCTRSSGSIASNYVHWYQQRPGSSPTTVIYEDNRRPSGVPARFSGSIDSSSNSASLTISGLETDDEADYYCQSSDTTYHGGVVFGGGTKLTVLG
# B7: AD1.3R3P6_F9 IgG (antibody, V domains shown)
# VH: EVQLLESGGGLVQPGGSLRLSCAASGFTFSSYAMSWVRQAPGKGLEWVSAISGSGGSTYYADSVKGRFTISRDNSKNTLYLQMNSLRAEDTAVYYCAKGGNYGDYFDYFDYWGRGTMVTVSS
# VL: NFMLTQPHSVSESPGKTVTISCTRSSGSIASNYVQWYQQRPGSAPTIVIYEDNQRPSGVPHRFSGSIDSSSNSASLTISGLKTEDEADYYCQSYEGFGGGTKLTVLG
# B8: NI-0501 (antibody, V domains shown)
# VH: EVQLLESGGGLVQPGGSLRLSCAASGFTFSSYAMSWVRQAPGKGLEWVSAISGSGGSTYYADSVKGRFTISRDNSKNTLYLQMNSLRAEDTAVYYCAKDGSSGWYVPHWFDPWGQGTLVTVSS
# VL: NFMLTQPHSVSESPGKTVTISCTRSSGSIASNYVQWYQQRPGSSPTTVIYEDNQRPSGVPDRFSGSIDSSSNSASLTISGLKTEDEADYYCQSYDGSNRWMFGGGTKLTVL
# notes: It is the back-mutated version of A6; also called A6 back-mutated to germline; back-mutated A6
# Experiments:
# recombinant human IFNγ [1] = target: T1, recombinant human IFNγ; test: cell-based or functional assay
# recombinant cat IFNγ = target: T2, recombinant cat IFNγ; test: Sandwich ELISA, IFNγ captured with pre-coated NI-0501
# Text: (§1) The IFNγ from each species was detected using a polyclonal antibody specific for the IFNγ in that assay.
# recombinant dog IFNγ = target: T3, recombinant dog IFNγ; test: as above
# Text: as §1
# [2] = target: T4, recombinant cynomolgus IFNγ; test: Binding, cross-reactivity table (Sandwich ELISA)
# recombinant human IFNγ [3] = target: T1, recombinant human IFNγ; test: Binding, cross-reactivity table (Sandwich ELISA)
# native cynomolgus IFNγ = target: T5, native cynomolgus IFNγ; test: Binding, cross-reactivity table (Sandwich ELISA)
# native human IFNγ = target: T6, native human IFNγ; test: Binding, cross-reactivity table (Sandwich ELISA)
Binder,MHC II Inhibition Cell-Based Assay IC50 (recombinant human IFNγ [1]) [pM],further results
B1,233,
B2,41,
B3,322,
B4,203,
B5,708,
B6,1520,
B7,185,
B8,,binding result (recombinant cat IFNγ): no binding; binding result (recombinant dog IFNγ): no binding; binding result [2]: binds; binding result (recombinant human IFNγ [3]): binds; binding result (native cynomolgus IFNγ): binds; binding result (native human IFNγ): binds
